Data published in patent publication US12139534B2, “Methods and compositions for decreasing soluble immune receptor CD28” (BIOND BIOLOGICS LTD., priority 2018, dated 2024).

Key:
[1] = target: T1, recombinant mouse CD28 (Mus musculus, UniProt P31041); assay: Direct ELISA on recombinant mouse CD28; format: binding
T1 construct: ELISA assay on increasing concentrations of mouse sCD28; purchased R&D 483-CD

[2] = target: T2, mCD28 (Homo sapiens, UniProt P10747); assay: FACS binding to mCD28 on naïve CD3 T cells; details: antibody 20 μg/mL
T2 construct: expressed in transfected cells
Protocol: Flow Cytometry—Generally, cells were kept on ice during all steps. Prior to staining, 5×10^5 cells were blocked with 50 μg/mL human IgG (Sigma, Cat. No. 14506) in FACS buffer (PBS with 0.1% BSA) for 15 min. Antibodies were used at concentrations recommended by the manufacturer and incubated for 30 min. in the dark. Incubations were done in a volume of 100 μL in 96-well U bottom plates. Cells were washed twice with 200 μL of FACS buffer and transferred to FACS tubes in 150 μL of FACS buffer for analysis. Cells were analyzed on a Gallios Flow Cytometer (Beckman Coulter) using the Kaluza for Gallios Flow Cytometry Acquisition Software.
Lastly, the ability of antibodies #1-3 to bind to mCD28 at all was examined. While it is not essential that a sCD28 antibody not bind mCD28 it is advantageous. Such an antibody could be used for specific detection of the soluble protein, and if used therapeutically would have no effect on the membranal form. Naïve isolated CD3 T cells were evaluated by FACs to assay mCD28 binding. Cells were incubated with antibodies #1-3 (20 μg/mL dark grey histograms) or isotype controls (mIgG, 20 μg/mL, light grey histograms). Binding detection was performed with Alexa Fluor 647-conjugated goat anti mouse secondary antibody.

[3] = target: T3, recombinant human CD28 (Homo sapiens, UniProt P10747); assay: Direct CD28 ELISA on recombinant human CD28; format: binding
T3 construct: recombinant human CD28 lacking the transmembrane and cytoplasmic domains; purchased R&D 342-CD

[4] = target: T2, mCD28; assay: CD86 blocking FACS on HEK293 cells stably transfected with human CD28; format: binding; details: CD86-Fc 5 μg/mL; antibody 20 μg/mL
Protocol: CD86 blocking FACS—0.5×10^6 HEK293 cells stably transfected with human CD28 were incubated with 5 μg/mL CD86-Fc (R&D systems, Cat. No. 141-B2) without or with anti CD28 antibodies (20 μg/mL) for 30 min in room temperature. Cells were washed and taken for secondary binding using anti-human heavy and light chains antibody conjugated to fluorophore at 1:5000 dilution for 20 min on ice.

[5] = test system: isolated CD3 human T cells; assay: CD3 T cells stimulation with anti-CD3 OKT3, IFN gamma secretion; format: cell-based; details: anti-CD3 stimulation; CD28.2 2.0 μg/mL, antibodies 0.1-10 μg/mL
Protocol: T cells stimulation with OKT3—0.1×10^6 isolated CD3 T cells (from healthy donors) were stimulated with indicated amount of anti-CD3 clone OKT3 for 48-72 hr at 37° C. When stated recombinant human CD80-Fc (2 μg/mL, R&D system) was added in soluble form. Antibodies to CD28 or controls were added at the indicated concentration in soluble form.
CD80 is one of the two main ligands for mCD28 along with CD86. The extracellular domain of CD80 fused to an Fc moiety has been used as an immune stimulatory molecule and is under investigation as a cancer therapy. In order to examine the effect of sCD28 on CD80-Fc efficacy, isolated CD3 human T cells were stimulated with plate bound anti-CD3 antibody (OKT3, 2 μg/mL) in the presence of 2 μg/mL soluble recombinant human CD80-Fc.

[6] = test system: sCD28; assay: Simulated sweeping of soluble CD28 from plasma with antibody coated magnetic beads; design: species or system human; details: cancer patient plasma; 0.125-2 μg antibody on beads; 37° C. 2 hours
Protocol: Simulated sweeping of soluble CD28 from plasma of cancer patient. Antibodies or recombinant proteins were coated on tosyl-activated magnetic beads (Invitrogen, Cat. No. DY-14203) as described by manufacturer protocol. […] The mixture was incubated in a thermomixer for 2 hr, 1000 RPM at 37° C., followed by removal of the beads using a DynaMag magnet (Invitrogen, Cat. No. 12321D) and the samples were examined using CD28 specific ELISA.
Varying amounts (0.125-2 μg) of antibodies #1 and #2 were loaded onto tosyl-activated magnetic beads according to the manufacturer's protocol (Thermo Fisher Scientific). The loaded beads were then added to plasma samples from a cancer patient, and the mixture was incubated in a thermomixer at 37° C. for 2 hours at 1000 RPM. The beads were isolated and removed from the plasma with a magnet and the amount of sCD28 remaining in the serum was measured by ELISA.
Antibody #1 was further tested on various cancer samples (melanoma, colorectal and ovarian) and compared to three B7 molecules which are known ligands of CD28. About 1.5 μg of antibody #1, CD80, CD86 and ICOSL were each loaded onto tosyl-activated magnetic beads and the beads were mixed with plasma as before. A colorectal sample (FIG. 16C), as well as two melanoma samples (FIG. 16D-E), an ovarian sample (FIG. 16F) and a sample from a healthy donor (FIG. 16G) were all tested.

T1 sequence (P31041 20-150 limits assumed): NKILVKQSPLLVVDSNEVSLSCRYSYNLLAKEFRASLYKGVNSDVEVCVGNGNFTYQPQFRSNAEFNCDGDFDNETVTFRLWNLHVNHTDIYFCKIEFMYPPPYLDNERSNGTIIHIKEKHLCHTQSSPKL

B1: antibody #2: sCD28 binding (sweeping) antibody; heavy chain SEQ ID NO: 46, light chain SEQ ID NO: 48 (antibody)
heavy: QVQLQQSGAELARPGASVKLSCKASGYTFTSYWMQWIKKRPGQGLEWIGAIYPGDGDTRYTQKFKGKATLTADKSSTTAYMQLSSLASEDSAVYFCARNYRYSSFGYWGQGTLVTVSAAKTTPPSVYPLAPGCGDTTGSSVTLGCLVKGYFPESVTVTWNSGSLSSSVHTFPALLQSGLYTMSSSVTVPSSTWPSQTVTCSVAHPASSTTVDKKLEPSGPISTINPCPPCKECHKCPAPNLEGGPSVFIFPPNIKDVLMISLTPKVTCVVVDVSEDDPDVQISWFVNNVEVHTAQTQTHREDYNSTIRVVSTLPIQHQDWMSGKEFKCKVNNKDLPSPIERTISKIKGLVRAPQVYILPPPAEQLSRKDVSLTCLVVGFNPGDISVEWTSNGHTEENYKDTAPVLDSDGSYFIYSKLNMKTSKWEKTDSFSCNVRHEGLKNYYLKKTISRSPGK
light: DIVMTQSPSSLTVTAGEKVTLSCKSSQSLLNSGNQKNYLTWYQQKPGQPPQLLIYWASTRESGVPDRFTGSGSGTDFTLTISSVQAEDLAVYYCQSDYSYPLTFGAGTKLELKRADAAPTVSIFPPSSEQLTSGGASVVCFLNNFYPKDINVKWKIDGSERQNGVLNSWTDQDSKDSTYSMSSTLTLTKDEYERHNSYTCEATHKTSTSPIVKSFNRNEC
binding to mouse CD28 [1]: able to bind mouse CD28 | binding to mCD28 on the cell surface [2]: do not bind CD28 on the cell surface | relationship of signal to concentration [3]: a linear relationship to increasing antibody concentrations over the entire range examined | binding to sCD28 ([3]; immobilized recombinant human sCD28): much stronger binding to sCD28 | CD86 binding to mCD28 [4]: none of antibody #1 (FIG. 15B), antibody #2 (FIG. 15C), or antibody #3 (FIG. 15D) blocked binding of CD86 to mCD28 | IFNγ secretion (agonism) [5]: no effect on IFN secretion | removal of sCD28 from plasma [6]: capable of binding and removing sCD28 from plasma
